This note sets out measurements from patent publication US20200024322A1 (Eli Lilly, published 2020).

In general, Ki refers to the equilibrium dissociation constant of an inhibitor or competing ligand from its target. Higher therefore signals lower affinity.

Numbering of substitutions follows the chain as printed. Numbered stars: 1 amine (or outer) side, 2 acyl side, 3 side chain; on linkers, the order of the positions; unused ones are H or OH. Square brackets hold non-standard residues; d marks the D form. Side chains are listed from the residue outwards. Ends that are not written are not given here. * marks the point of attachment. C20 diacid = O=C(O)CCCCCCCCCCCCCCCCCCC(=O)*; γGlu = O=C(O)[C@H](CCC(=O)[*:2])N[*:1]; Desaminotyrosyl = O=C(CCc1ccc(O)cc1)*; αMeF = C[C@](N)(Cc1ccccc1)C(=O)O; αMeL = CC(C)C[C@](C)(N)C(=O)O; AEEA = NCCOCCOCC(=O)O; Aib = CC(C)(N)C(=O)O

The chains are these.
B1: Example 123 (peptide)
peptide: YXEGTXTSDYSIXLDKKAQXEFIEYLIEGGPSSG
modifications: Aib2; αMeF6; αMeL13; K17((2-[2-(2-Amino-ethoxy)-ethoxy]-acetyl)2-(γ-Glu)-CO-(CH2)18-CO2H); Aib20; C-terminal NH2
B2: Example 124 (peptide)
peptide: B1 peptide with K16E
modifications: Aib2; αMeF6; αMeL13; K17((2-[2-(2-Amino-ethoxy)-ethoxy]-acetyl)2-(γ-Glu)-CO-(CH2)18-CO2H); Aib20; C-terminal NH2
B3: Example 122 (peptide)
peptide: Y[Aib]EGT[αMeF]TSDYSI[αMeL]LDEK([AEEA-AEEA-γGlu-C20 diacid])AQQAFIEYLIE[Aib]GPSSGAPPPS-NH2
modifications: N-terminus assumed
SMILES: CC[C@H](C)[C@H](NC(=O)[C@H](Cc1ccccc1)NC(=O)[C@H](C)NC(=O)[C@H](CCC(N)=O)NC(=O)[C@H](CCC(N)=O)NC(=O)[C@H](C)NC(=O)[C@H](CCCCNC(=O)COCCOCCNC(=O)COCCOCCNC(=O)CC[C@H](NC(=O)CCCCCCCCCCCCCCCCCCC(=O)O)C(=O)O)NC(=O)[C@H](CCC(=O)O)NC(=O)[C@H](CC(=O)O)NC(=O)[C@H](CC(C)C)NC(=O)[C@](C)(CC(C)C)NC(=O)[C@@H](NC(=O)[C@H](CO)NC(=O)[C@H](Cc1ccc(O)cc1)NC(=O)[C@H](CC(=O)O)NC(=O)[C@H](CO)NC(=O)[C@@H](NC(=O)[C@](C)(Cc1ccccc1)NC(=O)[C@@H](NC(=O)CNC(=O)[C@H](CCC(=O)O)NC(=O)C(C)(C)NC(=O)[C@@H](N)Cc1ccc(O)cc1)[C@@H](C)O)[C@@H](C)O)[C@@H](C)CC)C(=O)N[C@@H](CCC(=O)O)C(=O)N[C@@H](Cc1ccc(O)cc1)C(=O)N[C@@H](CC(C)C)C(=O)N[C@H](C(=O)N[C@@H](CCC(=O)O)C(=O)NC(C)(C)C(=O)NCC(=O)N1CCC[C@H]1C(=O)N[C@@H](CO)C(=O)N[C@@H](CO)C(=O)NCC(=O)N[C@@H](C)C(=O)N1CCC[C@H]1C(=O)N1CCC[C@H]1C(=O)N1CCC[C@H]1C(=O)N[C@@H](CO)C(N)=O)[C@@H](C)CC
B4: Example 133 (peptide)
peptide: [Desaminotyrosyl][Aib]EGT[αMeF]TSDYSI[Aib]LDEK([AEEA-AEEA-γGlu-C20 diacid])AQ[Aib]AFIEYLIEGGPSSGAPPPS-NH2
SMILES: CC[C@H](C)[C@H](NC(=O)[C@H](CC(C)C)NC(=O)[C@H](Cc1ccc(O)cc1)NC(=O)[C@H](CCC(=O)O)NC(=O)[C@@H](NC(=O)[C@H](Cc1ccccc1)NC(=O)[C@H](C)NC(=O)C(C)(C)NC(=O)[C@H](CCC(N)=O)NC(=O)[C@H](C)NC(=O)[C@H](CCCCNC(=O)COCCOCCNC(=O)COCCOCCNC(=O)CC[C@H](NC(=O)CCCCCCCCCCCCCCCCCCC(=O)O)C(=O)O)NC(=O)[C@H](CCC(=O)O)NC(=O)[C@H](CC(=O)O)NC(=O)[C@H](CC(C)C)NC(=O)C(C)(C)NC(=O)[C@@H](NC(=O)[C@H](CO)NC(=O)[C@H](Cc1ccc(O)cc1)NC(=O)[C@H](CC(=O)O)NC(=O)[C@H](CO)NC(=O)[C@@H](NC(=O)[C@](C)(Cc1ccccc1)NC(=O)[C@@H](NC(=O)CNC(=O)[C@H](CCC(=O)O)NC(=O)C(C)(C)NC(=O)CCc1ccc(O)cc1)[C@@H](C)O)[C@@H](C)O)[C@@H](C)CC)[C@@H](C)CC)C(=O)N[C@@H](CCC(=O)O)C(=O)NCC(=O)NCC(=O)N1CCC[C@H]1C(=O)N[C@@H](CO)C(=O)N[C@@H](CO)C(=O)NCC(=O)N[C@@H](C)C(=O)N1CCC[C@H]1C(=O)N1CCC[C@H]1C(=O)N1CCC[C@H]1C(=O)N[C@@H](CO)C(N)=O
B5: Example 137 (peptide)
peptide: YXEGTXTSDYSIXLDKKAQXXFIEYLIEGGPSSGAPPPS
modifications: Aib2; αMeF6; αMeL13; K17((2-[2-(2-Amino-ethoxy)-ethoxy]-acetyl)2-(γ-Glu)-CO-(CH2)18-CO2H); Aib20; Aad21; C-terminal NH2
B6: Example 152 (peptide)
peptide: B5 peptide with K16E, X21E, E24X
modifications: Aib2; αMeF(2F)6; αMeL13; K17((2-[2-(2-Amino-ethoxy)-ethoxy]-acetyl)2-(γ-Glu)-CO-(CH2)18-CO2H); Aib20; Aib24; C-terminal NH2
B7: Example 143 (peptide)
peptide: B5 peptide
modifications: Aib2; αMeF6; αMeL13; K17((2-[2-(2-Amino-ethoxy)-ethoxy]-acetyl)2-(γ-Glu)-CO-(CH2)18-CO2H); Aib20; Aib21; C-terminal NH2
B8: Example 147 (peptide)
peptide: B5 peptide with K16E, X21E, E24X
modifications: Aib2; αMeF(2F)6; αMeL13; K17((2-[2-(2-Amino-ethoxy)-ethoxy]-acetyl)2-(γ-Glu)-CO-(CH2)18-CO2H); Aib20; Aad24; C-terminal NH2
B9: Example 144 (peptide)
peptide: B5 peptide with X20H
modifications: Aib2; αMeF6; αMeL13; K17((2-[2-(2-Amino-ethoxy)-ethoxy]-acetyl)2-(γ-Glu)-CO-(CH2)18-CO2H); Aib21; C-terminal NH2
B10: Example 121 (peptide)
peptide: Y[Aib]EGT[αMeF]TSDYSI[αMeL]LDEK([AEEA-AEEA-γGlu-C20 diacid])AQQAFIEYLIEGGPSSGAPPPS-NH2
modifications: N-terminus assumed
SMILES: CC[C@H](C)[C@H](NC(=O)[C@H](CC(C)C)NC(=O)[C@H](Cc1ccc(O)cc1)NC(=O)[C@H](CCC(=O)O)NC(=O)[C@@H](NC(=O)[C@H](Cc1ccccc1)NC(=O)[C@H](C)NC(=O)[C@H](CCC(N)=O)NC(=O)[C@H](CCC(N)=O)NC(=O)[C@H](C)NC(=O)[C@H](CCCCNC(=O)COCCOCCNC(=O)COCCOCCNC(=O)CC[C@H](NC(=O)CCCCCCCCCCCCCCCCCCC(=O)O)C(=O)O)NC(=O)[C@H](CCC(=O)O)NC(=O)[C@H](CC(=O)O)NC(=O)[C@H](CC(C)C)NC(=O)[C@](C)(CC(C)C)NC(=O)[C@@H](NC(=O)[C@H](CO)NC(=O)[C@H](Cc1ccc(O)cc1)NC(=O)[C@H](CC(=O)O)NC(=O)[C@H](CO)NC(=O)[C@@H](NC(=O)[C@](C)(Cc1ccccc1)NC(=O)[C@@H](NC(=O)CNC(=O)[C@H](CCC(=O)O)NC(=O)C(C)(C)NC(=O)[C@@H](N)Cc1ccc(O)cc1)[C@@H](C)O)[C@@H](C)O)[C@@H](C)CC)[C@@H](C)CC)C(=O)N[C@@H](CCC(=O)O)C(=O)NCC(=O)NCC(=O)N1CCC[C@H]1C(=O)N[C@@H](CO)C(=O)N[C@@H](CO)C(=O)NCC(=O)N[C@@H](C)C(=O)N1CCC[C@H]1C(=O)N1CCC[C@H]1C(=O)N1CCC[C@H]1C(=O)N[C@@H](CO)C(N)=O
B11: Example 10 (peptide)
peptide: Y[Aib]EGTFTSDYSILLDSIAQ[Aib]AFIK([AEEA-AEEA-γGlu-C20 diacid])YLLA[Aib]GPSSGAPPPS-NH2
modifications: N-terminus assumed
SMILES: CC[C@H](C)[C@H](NC(=O)[C@H](CO)NC(=O)[C@H](CC(=O)O)NC(=O)[C@H](CC(C)C)NC(=O)[C@H](CC(C)C)NC(=O)[C@@H](NC(=O)[C@H](CO)NC(=O)[C@H](Cc1ccc(O)cc1)NC(=O)[C@H](CC(=O)O)NC(=O)[C@H](CO)NC(=O)[C@@H](NC(=O)[C@H](Cc1ccccc1)NC(=O)[C@@H](NC(=O)CNC(=O)[C@H](CCC(=O)O)NC(=O)C(C)(C)NC(=O)[C@@H](N)Cc1ccc(O)cc1)[C@@H](C)O)[C@@H](C)O)[C@@H](C)CC)C(=O)N[C@@H](C)C(=O)N[C@@H](CCC(N)=O)C(=O)NC(C)(C)C(=O)N[C@@H](C)C(=O)N[C@@H](Cc1ccccc1)C(=O)N[C@H](C(=O)N[C@@H](CCCCNC(=O)COCCOCCNC(=O)COCCOCCNC(=O)CC[C@H](NC(=O)CCCCCCCCCCCCCCCCCCC(=O)O)C(=O)O)C(=O)N[C@@H](Cc1ccc(O)cc1)C(=O)N[C@@H](CC(C)C)C(=O)N[C@@H](CC(C)C)C(=O)N[C@@H](C)C(=O)NC(C)(C)C(=O)NCC(=O)N1CCC[C@H]1C(=O)N[C@@H](CO)C(=O)N[C@@H](CO)C(=O)NCC(=O)N[C@@H](C)C(=O)N1CCC[C@H]1C(=O)N1CCC[C@H]1C(=O)N1CCC[C@H]1C(=O)N[C@@H](CO)C(N)=O)[C@@H](C)CC

T1 sequence (P47871 26-477): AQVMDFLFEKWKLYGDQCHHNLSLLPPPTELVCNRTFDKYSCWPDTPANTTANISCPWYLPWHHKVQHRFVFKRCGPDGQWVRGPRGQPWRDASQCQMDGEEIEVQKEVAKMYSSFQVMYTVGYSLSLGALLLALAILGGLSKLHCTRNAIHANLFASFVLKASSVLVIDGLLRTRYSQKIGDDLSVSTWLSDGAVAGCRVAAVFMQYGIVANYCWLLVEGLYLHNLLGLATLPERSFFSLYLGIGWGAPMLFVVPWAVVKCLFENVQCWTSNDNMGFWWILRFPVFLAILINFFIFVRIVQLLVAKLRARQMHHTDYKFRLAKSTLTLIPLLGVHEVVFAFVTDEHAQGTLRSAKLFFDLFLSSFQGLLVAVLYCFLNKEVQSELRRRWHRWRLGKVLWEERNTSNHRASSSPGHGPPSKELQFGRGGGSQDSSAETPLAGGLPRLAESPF

One experiment concerns the target T1, human glucagon receptor (human, UniProt P47871 26-477).
T1 construct: whole, on cells; Used as crude membranes of stably transfected HEK293 cells; also called hGcgR; hGLcgR
Description: SPA, [125I]-Gcg displacement, hGcgR membranes.
In turn, B1 showed a Ki of 80.1 nM.
B2 came in with an inhibitory constant (Ki) of 41.5 nM.
On the same count and under the same terms, then B3, with 43.3 nM.
On the same count and under the same terms, then B4, with 216 nM; and B5, with 98.1 nM; and B6, with 93.4 nM.
B7 came in with a Ki of 65.5 nM.
The same measure, in the same setting: for B8 the value was 64.9 nM; for B9, 77 nM; for B10, 51.9 nM.
The same measure, in the same setting: for B11 the value was 226 nM.

A further experiment concerns the target T2, human GIP receptor (human, UniProt P48546 22-466).
T2 construct: whole, on cells; Used as crude membranes of stably transfected CHO cells; also called hGIPR
T2 sequence (looked up): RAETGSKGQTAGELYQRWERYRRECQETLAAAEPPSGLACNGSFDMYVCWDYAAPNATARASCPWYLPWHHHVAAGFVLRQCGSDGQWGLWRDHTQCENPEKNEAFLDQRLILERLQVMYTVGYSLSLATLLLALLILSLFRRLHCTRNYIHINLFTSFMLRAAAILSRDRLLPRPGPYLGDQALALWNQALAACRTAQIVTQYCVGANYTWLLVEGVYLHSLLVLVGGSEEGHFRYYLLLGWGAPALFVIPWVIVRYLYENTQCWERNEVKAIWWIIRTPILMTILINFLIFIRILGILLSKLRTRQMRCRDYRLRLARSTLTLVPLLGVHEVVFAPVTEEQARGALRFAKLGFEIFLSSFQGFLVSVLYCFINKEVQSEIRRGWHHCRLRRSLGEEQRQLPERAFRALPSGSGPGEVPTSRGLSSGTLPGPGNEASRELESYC
Description: SPA, [125I]-GIP displacement, hGIPR membranes.
In turn, B1 registered a Ki of 0.0469 nM.
Same read-out and setting: for B2 the value was 0.0424 nM.
The same measure, in the same setting: for B3 the value was 0.19 nM; for B4, 0.157 nM; for B5, 0.0373 nM.
The same measure, in the same setting: then B6, with 0.117 nM; and B7, with 0.0304 nM.
On to B8, for which the affinity corresponds to a Ki of 0.0981 nM.
The same measure, in the same setting: then B9, with 0.0341 nM; and B10, with 0.177 nM.
The same measure, in the same setting: for B11 the value was 0.109 nM.

A further experiment addresses T3, human GLP-1 receptor (human, UniProt P43220 24-463).
T3 construct: whole, on cells; Used as crude membranes of stably transfected HEK293 cells; also called hGLP1R; hGLP-1R
Description: SPA, [125I]-GLP-1 displacement, hGLP-1R membranes.
B1 yielded a Ki of 1.31 nM.
As for B2, the affinity corresponds to a Ki of 4.87 nM.
Still for that read-out and setting: for B3 the value was 3.36 nM; for B4, 11.4 nM.
Still for that read-out and setting: then B5, with 1.24 nM; and B6, with 48 nM.
Still for that read-out and setting: then B7, with 1.15 nM.
B8 displayed a Ki of 4.47 nM.
The same measure, in the same setting: then B9, with 1.78 nM; and B10, with 3.16 nM; and B11, with 9.33 nM.
